Laboratory results as given in patent US10647739B2, “Flavonoids O-A-glucosylated on the B cycle, method for the production thereof and uses” (Institut National de la Recherche Agronomique, priority 2014, dated 2020).
Where “and” joins values, the source holds several entries; their conditions need not be identical. Equal entries are not always repeated.

Legend:
[1] = apigenin glucosylation acceptor reaction with recombinant glucansucrases (microplate screening); format: biochemical; settings: sucrose 146 mM, apigenin 2.5 mM, 3% DMSO, 30° C., 24 h, HPLC-UV 340 nm peak areas
Protocol: (§1) The enzymatic extracts obtained are used to carry out the flavonoid glucosylation enzymatic screening reactions. The enzymatic activity of each centrifuged cell lysate is evaluated in the microplate format, by final weight after 30 minutes incubation in the presence of a final concentration of 146 mM of sucrose, by assaying the reducing sugars with 3,5-dinitrosalicylic acid (DNS). Finally, after dilution in ultrapure water, the absorbance is read at 540 nm.
(§2) The flavonoid acceptor reactions are then carried out in deep-well microplates, in a volume of 300 μl, at final concentrations of sucrose of 146 mM and of flavonoid of 2.5 mM (apigenin) or 5 mM (naringenin) (initially dissolved in 100% DMSO), and 140 μl of centrifuged cell lysate.
(§3) The final DMSO concentration in the reaction medium is 3% (v/v).
(§4) The incubation is carried out at 30° C. and at 700 rpm. After 24 hours, the enzymes are denatured at 95° C. for 15 minutes. These microplates are stored at −80° C. with a view to rapid evaluation of the flavonoid glucosylation by liquid-phase chromatography coupled to mass spectrometry (HPLC-MS or LC-MS).
(§5) With a view to their analyses by HPLC-MS, the extensively homogenized reaction media are diluted to 1/30th in DMSO. The separation of the flavonoids and of their glucosylated forms is carried out in reverse phase with a ProntoSlL Eurobond® 53×3.0 mm 120-3-C18-AQ column (porosity of 120 Å, particle size of 3 μm, C18 grafting, Bischoff Chromatography, Germany).
(§6) The flavonoid glucosylation efficiency was determined from the following formula: Glucosylation efficiency=(Σ(area of the peak of glucosylated flavonoid(s)))/(Σ(area of the peak of glucosylated flavonoid(s))+area of the peak of residual aglycone flavonoid)×100
(§7) The flavonoid glucosylation efficiencies, expressed as a percentage, were calculated from the areas of the peaks of the various products analyzed, as described in example 1, by HPLC with a UV detector (340 nm) after 24 h of reaction.

[2] = naringenin glucosylation acceptor reaction with recombinant glucansucrases (microplate screening); format: biochemical; settings: sucrose 146 mM, naringenin 5 mM, 3% DMSO, 30° C., 24 h, HPLC-UV 340 nm peak areas
Protocol: as §1, §2, §3, §4, §5, §6
as §7, with “The flavonoid glucosylation efficiency was determined from the formula set out in example 2. The” for “The”, “(λ340 nm),” for “(340 nm)”

With “α-1,2 BrS: wild-type glucansucrase α-1,2 BrS, SEQ ID NO: 11” the apigenin glucosylation efficiency [1] was 2.5% and the naringenin glucosylation efficiency [2] was 26.8%.

B1: ASNp WT: wild-type recombinant amylosucrase from Neisseria polysaccharea (protein, UniProt Q9ZEU2 1-636, looked up)
Amylosucrase: MLTPTQQVGLILQYLKTRILDIYTPEQRAGIEKSEDWRQFSRRMDTHFPKLMNELDSVYGNNEALLPMLEMLLAQAWQSYSQRNSSLKDIDIARENNPDWILSNKQVGGVCYVDLFAGDLKGLKDKIPYFQELGLTYLHLMPLFKCPEGKSDGGYAVSSYRDVNPALGTIGDLREVIAALHEAGISAVVDFIFNHTSNEHEWAQRCAAGDPLFDNFYYIFPDRRMPDQYDRTLREIFPDQHPGGFSQLEDGRWVWTTFNSFQWDLNYSNPWVFRAMAGEMLFLANLGVDILRMDAVAFIWKQMGTSCENLPQAHALIRAFNAVMRIAAPAVFFKSEAIVHPDQVVQYIGQDECQIGYNPLQMALLWNTLATREVNLLHQALTYRHNLPEHTAWVNYVRSHDDIGWTFADEDAAYLGISGYDHRQFLNRFFVNRFDGSFARGVPFQYNPSTGDCRVSGTAAALVGLAQDDPHAVDRIKLLYSIALSTGGLPLIYLGDEVGTLNDDDWSQDSNKSDDSRWAHRPRYNEALYAQRNDPSTAAGQIYQGLRHMIAVRQSNPRFDGGRLVTFNTNNKHIIGYIRNNALLAFGNFSEYPQTVTAHTLQAMPFKAHDLIGGKTVSLNQDLTLQPYQVMWLEIA
In the case of B1, the apigenin glucosylation efficiency [1] is reported as 0.5±0.5% and 0.5%, the apigenin glucosylation efficiency ([1]; listed as A289A) is reported as 0.6% and the apigenin glucosylation efficiency ([1]; listed as D394D) is reported as 0.1%. It also gave an apigenin glucosylation efficiency ([1]; listed as F229F) of 0.8%, an apigenin glucosylation efficiency ([1]; listed as F290F) of 0.8% and an apigenin glucosylation efficiency ([1]; listed as I228I) of 0.8%. It also gave an apigenin glucosylation efficiency ([1]; listed as I330I) of 0.8%, an apigenin glucosylation efficiency ([1]; listed as R226R) of 0.3% and an apigenin glucosylation efficiency ([1]; listed as V331V) of 0.2%. For the same molecule, the naringenin glucosylation efficiency [2] was 4.7±1.7% and 4.7%, the naringenin glucosylation efficiency ([2]; listed as A289A) was 3.4% and the naringenin glucosylation efficiency ([2]; listed as D394D) was 0.0%. For the same molecule, the naringenin glucosylation efficiency ([2]; listed as F229F) was 0.0%, the naringenin glucosylation efficiency ([2]; listed as F290F) was 0.0% and the naringenin glucosylation efficiency ([2]; listed as I228I) was 0.0%. The naringenin glucosylation efficiency ([2]; listed as I330I) was 0.0%, the naringenin glucosylation efficiency ([2]; listed as R226R) was 2.5% and the naringenin glucosylation efficiency ([2]; listed as R446R) was 6.0%. The naringenin glucosylation efficiency ([2]; listed as V331V) was 4.7%.

B2: V331A: ASNp amylosucrase single mutant (protein, UniProt Q9ZEU2 1-636, looked up, variant V331A)
Amylosucrase: MLTPTQQVGLILQYLKTRILDIYTPEQRAGIEKSEDWRQFSRRMDTHFPKLMNELDSVYGNNEALLPMLEMLLAQAWQSYSQRNSSLKDIDIARENNPDWILSNKQVGGVCYVDLFAGDLKGLKDKIPYFQELGLTYLHLMPLFKCPEGKSDGGYAVSSYRDVNPALGTIGDLREVIAALHEAGISAVVDFIFNHTSNEHEWAQRCAAGDPLFDNFYYIFPDRRMPDQYDRTLREIFPDQHPGGFSQLEDGRWVWTTFNSFQWDLNYSNPWVFRAMAGEMLFLANLGVDILRMDAVAFIWKQMGTSCENLPQAHALIRAFNAVMRIAAPAAFFKSEAIVHPDQVVQYIGQDECQIGYNPLQMALLWNTLATREVNLLHQALTYRHNLPEHTAWVNYVRSHDDIGWTFADEDAAYLGISGYDHRQFLNRFFVNRFDGSFARGVPFQYNPSTGDCRVSGTAAALVGLAQDDPHAVDRIKLLYSIALSTGGLPLIYLGDEVGTLNDDDWSQDSNKSDDSRWAHRPRYNEALYAQRNDPSTAAGQIYQGLRHMIAVRQSNPRFDGGRLVTFNTNNKHIIGYIRNNALLAFGNFSEYPQTVTAHTLQAMPFKAHDLIGGKTVSLNQDLTLQPYQVMWLEIA
Work on B2 yielded an apigenin glucosylation efficiency [1] of 0.5% and a naringenin glucosylation efficiency [2] of 0.0%.

B3: DSR-S vardelΔ4N S512C: mutant of truncated DSR-S, SEQ ID NO: 10 (protein)
chain: TQQVSGKYVEKDGSWYYYFDDGKNAKGLSTIDNNIQYFYESGKQAKGQYVTIDNQTYYFDKGSGDELTGLQSIDGNIVAFNDEGQQIFNQYYQSENGTTYYFDDKGHAATGIKNIEGKNYYFDNLGQLKKGFSGVIDGQIMTFDQETGQEVSNTTSEIKEGLTTQNTDYSEHNAAHGTDAEDFENIDGYLTASSWYRPTGILRNGTDWEPSTDTDFRPILSVWWPDKNTQVNYLNYMADLGFISNADSFETGDSQSLLNEASNYVQKSIEMKISAQQSTEWLKDAMAAFIVAQPQWNETSEDMSNDHLQNGALTYVNSPLTPDANSNFRLLNRTPTNQTGEQAYNLDNSKGGFELLLANQEDNSNVVVEAEQLNWLYYLMNFGTITANDADANFDGIRVDAVDNVDADLLQIAADYFKLAYGVDQNDATANQHLSILEDWSHNDPLYVTDQGSNQLTMDDYVHTQLIWSLTKSSDIRGTMQRFVDYYMVDRSNDSTENEAIPNYSFVRAHDCEVQTVIAQIVSDLYPDVENSLAPTTEQLAAAFKVYNEDEKLADKKYTQYNMASAYAMLLTNKDTVPRVYYGDLYTDDGQYMATKSPYYDAINTLLKARVQYVAGGQSMSVDSNDVLTSVRYGKDAMTASDTGTSETRTEGIGVIVSNNAELQLEDGHTVTLHMGAAHKNQAYRALLSTTADGLAYYDTDENAPVAYTDANGDLIFTNESIYGVQNPQVSGYLAVWVPVGAQQDQDARTASDTTTNTSDKVFHSNAALDSQVIYEGFSNFQAFATDSSEYTNVVIAQNADQFKQWGVTSFQLAPQYRSSTDTSFLDSIIQNGYAFTDRYDLGYGTPTKYGTADQLRDAIKALHASGIQAIADWVPDQIYNLPEQELATVTRTNSFGDDDTDSDIDNALYVVQSRGGGQYQEMYGGAFLEELQALYPSLFKVNQISTGVPIDGSVKITEWAAKYFNGSNIQGKGAGYVLKDMGSNKYFKVVSNTEDGDYLPKQLTNDLSETGFTHDDKGIIYYTLSGYRAQNAFIQDDDNNYYYFDKTGHLVTGLQKINNHTYFFLPNGIELVKSFLQNEDGTIVYFDKKGHQVFDQYITDQNGNAYYFDDAGVMLKSGLATIDGHQQYFDQNGVQVKDKFVIGTDGYKYYFEPGSGNLAILRYVQNSKNQWFYFDGNGHAVTGFQTINGKKQYFYNDGHQSKGEFIDADGDTFYTSATDGRLVTGVQKINGITYAFDNTGNLITNQYYQLADGKYMLLDDSGRAKTGFVLQDGVLRYFDQNGEQVKDAIIVDPDTNLS
modifications: Leuconostoc mesenteroides
In the case of B3, the apigenin glucosylation efficiency [1] is reported as 13.9%, the apigenin glucosylation efficiency ([1]; listed as S512C) is reported as 13.9% and the naringenin glucosylation efficiency [2] is reported as 0.0%.
